The results in this text go back to patent publication US20070037156.

This data set relates to gelatin.

Regarding “279Gln common variant of MMP-9 (matrix metalloproteinase-9)”, the “MMP-9 activity by zymography (gelatin in the polyacrylamide gel)” value is “Activity in both lanes 1 and 2 of FIG. 4 is similar”.

With “279Arg rare variant of MMP-9 (matrix metalloproteinase-9)”, the “MMP-9 activity by zymography (gelatin in the polyacrylamide gel)” value was “Activity in both lanes 1 and 2 of FIG. 4 is similar”.
